Numbering of substitutions follows the chain as printed. Names and notes keep the numbering of the source.

These results are taken from patent US11702666B2, “Cell-based assay for determining activity in the retinoblastoma pathway” (Medical Diagnostic Laboratories, LLC, priority 2017, dated 2023).

For the experiment, the system named is Rb/E2F1-Dp-1 complex. Nature of the experiment: CDK4 mutant activity / drug resistance in NanoBiT assay, stable cell line #11. Type of experiment: cell-based, human. The method, then:
A linear expression cassette of mutated CDK4 or CDK6 was generated by PCR mediated overlapping extension method. A pair of forward and reverse primers containing the targeted mutations was designed. The mutated codon was located in the middle of a primer flanked by 18-21 nucleotides on each side. Two PCRs (named as PCR #1 and PCR #2 in FIG. 1) were performed using UF-CMV forward and mutated reverse primers, or mutated forward and BGH-UR primers. The PCR products were cleaned up by ExoSAP-IT® (Affymetrix) to remove unconsumed dNTPs and primers. The treated PCR products were mixed together followed by dilution with water. A second round of PCR was performed using the diluted PCR mixture, and the UF and UR primers (FIG. 1). The amplified products were gel-purified. The DNA concentration was quantitated by the optical density at 260 nm using Nanodrop. The targeted mutations were incorporated in the CDK4 or CDK6 genes during the PCR mediated overlapping extension method. The introduced mutations were confirmed by the DNA sequencing.
To examine the ability of the assay to detect variants in CDK4 or CDK6 that affect function, kinase dead mutants and COSMIC (Catalogue Of Somatic Mutations in cancer) unknown mutants were created. For comparison, hyperactive CDK4 or CDK6 mutants known to be hyperactive due to less binding to natural inhibitor p16 were also created. The mutations in CDK4 or CDK6 were created by site-directed mutagenesis. WT or mutated CDK4 or CDK6 along with the CyclinD1 and SB-Rb were co-transfected, under similar conditions as previously indicated (see FIG. 9).
To examine the specificity of the assay, particular CDK4 kinase dead mutants were created. Modifications to D158 were made by changing aspartate to nonpolar alanine (D158A) or positively charged arginine (D158R). […] The mutations in CDK4 were created by site-directed mutagenesis. WT or mutated CDK4 along with the CyclinD1 and SB-Rb was co-transfected into the #11 cell line, under the same conditions as previously indicated. […] Kinase dead mutants have the high signal due to inability to phosphorylate Rb.
Computer modeling was used to reveal the drug-binding pocket and predict drug-resistant mutants. The mutations in CDK4 and CDK6 were created by site-directed mutagenesis. WT or mutated CDK4 or CDK6 along with the CyclinD1 and SB-Rb was co-transfected into #11 cell line, under the same conditions as previously indicated. […] Dose response curves are presented on FIG. 13A and FIG. 13B. Activity of other mutants was very similar to the WT or KD.
CDK4 and CDK6 mutants with known function and unknown function taken from the COSMIC database were analyzed in the present assay and are summarized in Table 7A and Table 7B. The mutants were classified according to their activity. Table 7A and Table 7B also show the number of counts per mutant in the COSMIC database, type of cancer, and luciferase activity compared to the WT (being 100%).

[1] abbreviates: CDK4 mutants, compared to the WT (being 100%).

B1: CDK4 I51F: predicted drug resistant CDK4 mutant (protein, UniProt P11802 2-303, looked up, variant I51F)
Cyclin-dependent kinase 4: ATSRYEPVAEIGVGAYGTVYKARDPHSGHFVALKSVRVPNGGGGGGGLPFSTVREVALLRRLEAFEHPNVVRLMDVCATSRTDREIKVTLVFEHVDQDLRTYLDKAPPPGLPAETIKDLMRQFLRGLDFLHANCIVHRDLKPENILVTSGGTVKLADFGLARIYSYQMALTPVVVTLWYRAPEVLLQSTYATPVDMWSVGCIFAEMFRRKPLFCGNSEADQLGKIFDLIGLPPEDDWPRDVSLPRGAFPPRGPRPVQSVVPEMEESGAQLLLEMLTFNPHKRISAFRALQHSYLHKDEGNPE
As to B1, where the note is “predicted drug resistant CDK4 mutants, relative to WT”, the Luc. activity (/wt) was 160%.

B2: CDK4 K155Q: CDK4 mutant from COSMIC database (protein, UniProt P11802 2-303, looked up, variant K155Q)
Cyclin-dependent kinase 4: B1 Cyclin-dependent kinase 4 with F50I, K154Q
Take B2: under setting [1], the “Luc. activity (/wt)” value worked out at 130%.

B3: CDK4 K35M: CDK4 mutant, literature kinase dead (protein, UniProt P11802 2-303, looked up, variant K35M)
Cyclin-dependent kinase 4: B1 Cyclin-dependent kinase 4 with K34M, F50I
As for B3, under setting [1], the “Luc. activity (/wt)” value is on record as 350%.

B4: CDK4 S285C: CDK4 mutant from COSMIC database (protein, UniProt P11802 2-303, looked up, variant S285C)
Cyclin-dependent kinase 4: B1 Cyclin-dependent kinase 4 with F50I, S284C
Consider B4, for which the “Luc. activity (/wt)” value under setting [1] is 125%.

B5: CDK4 V137I: CDK4 mutant from COSMIC database (protein, UniProt P11802 2-303, looked up, variant V137I)
Cyclin-dependent kinase 4: B1 Cyclin-dependent kinase 4 with F50I, V136I
As to B5, the “Luc. activity (/wt)” value under setting [1] was 120%.

B6: CDK4 D158N: CDK4 mutant, literature kinase dead (protein, UniProt P11802 2-303, looked up, variant D158N)
Cyclin-dependent kinase 4: B1 Cyclin-dependent kinase 4 with F50I, D157N
Regarding B6, the “Luc. activity (/wt)” value under setting [1] came to 300%.

B7: CDK4 L161L: CDK4 silent variant (C-T) from COSMIC database (protein, UniProt P11802 2-303, looked up)
Cyclin-dependent kinase 4: B1 Cyclin-dependent kinase 4 with F50I
modifications: silent L161L nucleotide variant
notes: CDK4 silent variant (C-T) from COSMIC database
As to B7, the “Luc. activity (/wt)” value under setting [1] was determined as 59%.

B8: CDK4 K22M: CDK4 mutant from COSMIC database (protein, UniProt P11802 2-303, looked up, variant K22M)
Cyclin-dependent kinase 4: B1 Cyclin-dependent kinase 4 with K21M, F50I
Consider B8, for which the “Luc. activity (/wt)” value under setting [1] worked out at 141%.

B9: CDK4 R210Q: CDK4 mutant from COSMIC database (protein, UniProt P11802 2-303, looked up, variant R210Q)
Cyclin-dependent kinase 4: B1 Cyclin-dependent kinase 4 with F50I, R209Q
Regarding B9, under setting [1], the “Luc. activity (/wt)” value was determined as 74.5%.

B10: CDK4 R24S: CDK4 mutant from COSMIC database (protein, UniProt P11802 2-303, looked up, variant R24S)
Cyclin-dependent kinase 4: B1 Cyclin-dependent kinase 4 with R23S, F50I
For B10, under setting [1], the “Luc. activity (/wt)” value turned out to be 117%.

B11: CDK4 K35R: CDK4 mutant from COSMIC database (protein, UniProt P11802 2-303, looked up, variant K35R)
Cyclin-dependent kinase 4: B1 Cyclin-dependent kinase 4 with K34R, F50I
B11: the “Luc. activity (/wt)” value under setting [1] stood at 310%.

B12: CDK4 D158Y: CDK4 mutant from COSMIC database (protein, UniProt P11802 2-303, looked up, variant D158Y)
Cyclin-dependent kinase 4: B1 Cyclin-dependent kinase 4 with F50I, D157Y
For B12, under setting [1], the “Luc. activity (/wt)” value worked out at 230%.
